# Test results from IntAct's records for PubMed 22474355.
# B1: RNA-silencing factor ers1 (Schizosaccharomyces pombe (strain ATCC 38366 / 972)), O94717 (parent)
# chain: MGKVSANNQSGFFKFYIDTALLLNAEFISSFTNCINSEYNGKVKISYSSSSQQFKVIVYEEHKREAFSLFEEIVQKLKRESTVYKKPRLDIHPFGQLHYDFTTLLNFQRYLDLGYGIEDVKIKENEDIVKSKVGKKPTSSDFYIPCLIKPKIITPFEWEGNFKQVIYSPTVYNGSFKRLFYLPDNNDLLKEFAHATNTKYKASLKDNKIVVLANNDQDINAMLEKMKHIENLVSQKVYEYPEETLVYAGKIAPCQLKFLKLKFENEILYTAMHTTSIFKSVFNILGSFYTMRLLRNKHDGDSYELVPVFAKNPSKTPPCNDNFKIFSDDIKLIGCKIFAGVSLNFSSPKPAHRFYELNKTSSNLSIPVLQKPSNFHSSSTELSDNSIHQGRRAVDPVVNQNNPSNFEEMIMNKLNKLPTIDKQILGTSSLTHFQDKTTAIEHSINKSNSKQPPRFKFQLPPRPTSNTLPLEPEEELVTRYSVSSDGNTVDEAITKQSQTFQLVNSNEFNEVNANDVHKSLRQNCAKLDFDDSKSKNLLSVECLELDKGSDCSTPKSGSLTPSIDMKFLRLQDEKMDDLGDNYYTILMSSNPVSSYGVGSLYLFQPKIVCSEKYINHEEIDNMNLKSLHRWLSRSLHVLQSFSGEIELNLEFGVILYPNISSDVSACSHGFMNIYKDLNLPRSYFADCITKSVSNIDSLLNTPVKILFGRTEYTYPLIEHEVLDSKNYFVFKGSLLFTDDKRNKTEDSTVFFSMICSSKLDQFAFYKDSKQSSTCTINFPLALWDSRLRIETKVPLNDAILTEFSKSIRFRNVNKDLLLVFGNMEDRVIIHSVTRINENSVPFNKNLLPHSLEFILKCSKVKSYDISPSSINSKEAFVCLDRSKESKPIESCFSLSIQSVYMQSQFKYNNSIRAGETAPWKLANKQFIGGAITENVSDLYTAAIIMVNQLGGIHPTI
# partner: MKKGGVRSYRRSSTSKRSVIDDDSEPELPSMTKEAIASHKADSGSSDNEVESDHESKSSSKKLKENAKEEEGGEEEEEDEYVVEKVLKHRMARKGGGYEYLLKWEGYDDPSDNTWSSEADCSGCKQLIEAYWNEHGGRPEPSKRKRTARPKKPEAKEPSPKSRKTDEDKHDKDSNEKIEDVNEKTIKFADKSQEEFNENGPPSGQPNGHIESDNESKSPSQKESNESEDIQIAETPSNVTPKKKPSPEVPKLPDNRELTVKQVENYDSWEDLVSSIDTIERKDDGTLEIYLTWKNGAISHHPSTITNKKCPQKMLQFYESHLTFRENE
# B2: RNA-silencing factor ers1 (Schizosaccharomyces pombe (strain ATCC 38366 / 972)), O94717 (parent)
# chain: B1 chain
# partner: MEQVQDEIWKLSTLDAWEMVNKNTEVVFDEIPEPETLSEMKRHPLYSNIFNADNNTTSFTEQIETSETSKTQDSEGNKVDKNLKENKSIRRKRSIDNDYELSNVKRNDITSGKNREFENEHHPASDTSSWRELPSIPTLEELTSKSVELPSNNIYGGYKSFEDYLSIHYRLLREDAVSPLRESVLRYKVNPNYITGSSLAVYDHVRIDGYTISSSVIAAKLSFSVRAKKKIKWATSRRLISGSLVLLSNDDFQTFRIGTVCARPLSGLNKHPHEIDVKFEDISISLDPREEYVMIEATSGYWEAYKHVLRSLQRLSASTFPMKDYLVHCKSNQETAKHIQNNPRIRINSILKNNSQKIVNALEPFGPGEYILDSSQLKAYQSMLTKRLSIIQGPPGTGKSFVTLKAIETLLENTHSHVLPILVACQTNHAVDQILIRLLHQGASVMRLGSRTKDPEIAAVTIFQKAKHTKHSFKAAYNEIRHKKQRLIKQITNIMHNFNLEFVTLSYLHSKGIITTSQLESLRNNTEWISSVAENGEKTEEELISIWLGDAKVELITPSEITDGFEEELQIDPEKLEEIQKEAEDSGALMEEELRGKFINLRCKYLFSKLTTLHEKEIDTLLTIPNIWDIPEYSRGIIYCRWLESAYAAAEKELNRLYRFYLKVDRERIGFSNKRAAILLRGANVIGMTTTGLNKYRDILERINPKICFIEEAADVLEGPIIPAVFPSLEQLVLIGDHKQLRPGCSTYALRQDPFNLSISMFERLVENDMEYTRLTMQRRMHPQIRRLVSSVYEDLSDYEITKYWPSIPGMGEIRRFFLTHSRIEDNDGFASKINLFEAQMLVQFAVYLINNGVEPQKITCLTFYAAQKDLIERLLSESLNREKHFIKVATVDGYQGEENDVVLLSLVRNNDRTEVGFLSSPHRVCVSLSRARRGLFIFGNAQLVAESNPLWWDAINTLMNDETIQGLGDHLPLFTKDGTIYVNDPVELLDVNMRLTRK
# Variants of: B1
# Details: with swi6_schpo swi6, P40381
row,effect of a mutation on the interaction,Variant
1,decreasing interaction strength,S234P

# Variants of: B2
# Details: with hrr1_schpo hrr1, O74465
row,effect of a mutation on the interaction,Variant
1,decreasing interaction strength,S234P
